Results: patent US6087115A, “Methods of identifying negative antagonists for G protein coupled receptors” (Cornell Research Foundation, Inc., priority 1997, dated 2000)

T1: KSHV GPCR (Human herpesvirus 8 type P, UniProt Q98146)
T1 construct: expressed in transfected cells; host or cells: COS-1
T1 sequence (Q98146 1-342): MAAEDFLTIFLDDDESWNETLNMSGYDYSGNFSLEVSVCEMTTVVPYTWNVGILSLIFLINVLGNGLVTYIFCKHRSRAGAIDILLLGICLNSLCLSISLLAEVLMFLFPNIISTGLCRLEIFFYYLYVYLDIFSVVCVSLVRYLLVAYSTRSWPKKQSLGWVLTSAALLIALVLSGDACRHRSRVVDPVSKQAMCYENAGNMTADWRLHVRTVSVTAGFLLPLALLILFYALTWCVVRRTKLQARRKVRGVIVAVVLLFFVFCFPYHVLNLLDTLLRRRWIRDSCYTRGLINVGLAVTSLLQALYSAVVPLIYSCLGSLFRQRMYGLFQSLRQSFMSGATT

B1: MIP-1b: chemokine of the C-C family (protein, UniProt P13236 24-92, looked up)
C-C motif chemokine 4: APMGSDPPTACCFSYTARKLPRNFVVDYYETSSLCSQPAVVFQTKRSKQVCADPSESWVQEYVYDLELN
B2: I-309: chemokine of the C-C family (protein, UniProt P22362 24-96, looked up)
C-C motif chemokine 1: KSMQVPFSRCCFSFAEQEIPLRAILCYRNTSSICSNEGLIFKLKRGKEACALDTVGWVQRHRKMLRHCPSKRK
B3: NAP-2: C-X-C chemokine (protein, UniProt P02775 59-128, looked up)
Neutrophil-activating peptide …: AELRCMCIKTTSGIHPKNIQSLEVIGKGTHCNQVEVIATLKDGRKICLDPDAPRIKKIVQKKLAGDESAD
modifications: Neutrophil-activating peptide 2
notes: C-X-C chemokine

Experiments:
KSHV GPCR = target: T1, KSHV GPCR; assay: Competition binding of 125I-IL-8 by unlabelled chemokines to COS-1 cells transfected with pcKSHV GPCR; conditions: for binding to KSHV GPCR (in words): competition analysis with 125I-IL-8, FIGS. 2 and 3; for Ki: competition of human recombinant 125I-IL-8, COS-1 cells transfected with pcKSHV GPCR, 4° C., 2 hrs, read-out: Kd or Ki
Procedure: Data represent the mean of triplicate determinations in a representative of two experiments;
Competition binding. The coding sequence of KSHV GPCR was cleaved from its original subcloning plasmid (Cesarman et al. 1996) by digestion with NcoI and inserted into the EcoRV site of the eukaryotic expression vector pcDNA3.1(+) (Invitrogen), producing the pcKSHV GPCR used for expression in mammalian cells. COS-1 cells (American Type Culture Collection) were grown in 100 mm petri dishes in Dulbecco's modified Eagle's medium (DMEM; GIBCO-BRL) with 5% Nu-Serum (Collaborative Research) in a humidified incubator in an atmosphere of 5% CO2 at 37° C. […] Approximately 100,000 cells per well (in 12-well plates) were washed with Hank's balanced salt solution (HBSS) containing 25 mM HEPES, pH 7.4 (GIBCO-BRL). […] The binding buffer contained bovine serum albumin (BSA; 1 mg/ml), bacitracin (1 mg/ml), and phenyl methyl sulphonyl fluoride (PMSF; 1 mM). Assays were terminated by aspirating the binding buffer, washing three times with chilled HBSS and solubilizing the cells with 0.4 N NaOH. An aliquot of this solution was counted in a gamma counter and the data expressed as percent of maximum bound. Binding and dose-response curves were analyzed using Prism software (GraphPad, Inc.).

[1] = tested on: human IL-8 receptors (type A or B); assay: Inositol phosphate accumulation in COS-1 cells transfected with human IL-8 receptor plasmids with or without Ga16/Ga15; type: cell-based; conditions: COS cells expressing IL-8 receptors without cotransfected Ga16 or Ga15, absence or presence of IL-8
[2] = target: human IL-8 receptor types A or B; conditions: values previously reported (Holmes et al. 1991; Murphy and Tiffany 1991); cited from earlier work

| Molecule | binding to KSHV GPCR (in words) (KSHV GPCR) | Ki (KSHV GPCR) [nM] | accumulation of IPs [1] | Kd [2] [nM] |
| --- | --- | --- | --- | --- |
| RANTES: chemokine of the C-C family | bind to KSHV GPCR | 520 | – | – |
| PF-4: C-X-C chemokine | also bind to KSHV GPCR | 150 | – | – |
| MCP-1: chemokine of the C-C family | do not | – | – | – |
| IL-8: member of the family of C-X-C chemokines; used as radioligand and unlabelled competitor | – | – | little measurable accumulation | 0.8 to 1 |
| MGSA: C-X-C chemokine | also bind to KSHV GPCR | 270 | – | – |
| B1 | do not | – | – | – |
| B2 | bind to KSHV GPCR | 110 | – | – |
| B3 | also bind to KSHV GPCR | 23 | – | – |
